The values below come from paper PMC7020254.

Data set [1] relates to P00451. In words: AUC; sedimentation velocity, 105,000 g, 20 C, A280; Helixate desalted into HBS/Ca/PS-80, treated 10 min with 80 uM ClO- or control buffer, exchanged into HBS/Ca/PS-80; c(s) 0-100 S; aggregates 12-100 S relative to 5-100 S.
Data set [2] relates to P00451. In words: AUC; sedimentation velocity, 105,000 g, 20 C, A280; Helixate in its therapeutic formulation buffer; c(s) 0-200 S; aggregates integrated 15-100 S.
The subject of data set [3] is P00451. In words: AUC; sedimentation velocity, 105,000 g, 20 C, A280; Helixate in 2x formulation buffer treated with 80 uM ClO- or control buffer, then buffer exchange on a desalting column; c(s) 0-100 S; aggregates 12-100 S relative to 5-100 S.
In data set [4] the test system is P00451. In words: AUC; sedimentation velocity, 105,000 g, 20 C, A280; Helixate exchanged into HBS/Ca/PS-80 and immediately run; c(s) 0-200 S; aggregates integrated 12-100 S.

On to “Helixate FS (recombinant full-length factor VIII), non-oxidized”, for which the “percent of signal in aggregates (12-100 S relative to 5-100 S)” value with P00451 [1] was 13.4 and 13.3% of the signal; in the data set on P00451 [3], 14.5 and 9.2%. Besides, in the data set on P00451 [2], the “percent of signal in aggregates (15-100 S)” value was 18.9% and 15.9%. For the same substance, the “percent of signal in aggregates (12-100 S)” value in the data set on P00451 [4] is 18.9% and 15.9%.
For the substance “Helixate FS (recombinant full-length factor VIII) oxidized with 80 uM ClO-”, the “percent of signal in aggregates (12-100 S relative to 5-100 S)” value with P00451 [1] was 13.4 and 13.3% of the signal; in the data set on P00451 [3] it was 14.5 and 9.2%.
